Test results reported in US20140024806A1.
Square brackets hold non-standard residues; d marks the D form. Ends that are not written are not given here. Hyp = O=C(O)[C@@H]1C[C@@H](O)CN1

What was measured:
[1] = target: growth hormone receptor (GHR) on NIH 3T3-L1 cells (Mus musculus (Mouse)) (UniProt P16882); assay: radioreceptor competition assay, [125I]-hGH on GHR-expressing NIH 3T3-L1 cell monolayers
[2] = target: anti-hGH-(SO)10 antibodies (1:10,000 serum dilution); assay: competition ELISA, hGH-(SO)10-coated plates, serum 1:10,000, 100 ug/ml (SO)10 as competitive inhibitor

UniProt P16882, sequence (P16882 25-650 limits assumed, form in doubt): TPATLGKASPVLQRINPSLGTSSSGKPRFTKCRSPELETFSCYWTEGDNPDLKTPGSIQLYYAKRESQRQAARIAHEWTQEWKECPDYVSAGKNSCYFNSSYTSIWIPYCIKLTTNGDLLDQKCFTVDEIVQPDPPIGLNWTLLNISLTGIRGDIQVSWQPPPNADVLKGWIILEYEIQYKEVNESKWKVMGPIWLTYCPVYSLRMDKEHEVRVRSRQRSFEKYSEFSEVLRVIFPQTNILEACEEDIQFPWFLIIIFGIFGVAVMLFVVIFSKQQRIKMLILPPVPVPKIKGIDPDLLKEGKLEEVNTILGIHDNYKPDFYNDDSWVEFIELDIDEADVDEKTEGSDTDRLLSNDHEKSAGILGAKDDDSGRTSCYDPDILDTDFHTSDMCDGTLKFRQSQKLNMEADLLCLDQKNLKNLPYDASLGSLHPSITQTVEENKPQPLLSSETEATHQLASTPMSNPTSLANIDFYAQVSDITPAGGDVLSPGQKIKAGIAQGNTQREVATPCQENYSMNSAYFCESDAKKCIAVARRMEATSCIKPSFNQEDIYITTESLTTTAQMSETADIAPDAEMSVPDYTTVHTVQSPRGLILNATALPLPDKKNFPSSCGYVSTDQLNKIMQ

EC50 [1] [nM]	percent inhibition [2] [%]	Molecule
10		hGH-(SO)10-EGFP fusion glycoprotein (human growth hormone, (Ser-Hyp)10, enhanced green fluorescent protein) (ligand)
	5	S[Hyp]S[Hyp]S[Hyp]S[Hyp]S[Hyp]S[Hyp]S[Hyp]S[Hyp]S[Hyp]S[Hyp] (also: O-glycosylated, sites not given here) [purified (SO)10 glycomodule]
